Assay results: patent publication US9637768B2, “Method for preparing sialic acid derivative” (priority 2013, dated 2017)

What was measured:
[1] = test system: Photobacterium damselae α-2,6-sialyltransferase (α2,6PdST), all mutants of Table 3 (I411T, L433S, L433T, I411T/L433S, I411T/L433T); assay: kinetic parameters for α-2,6-sialyltransferase, all mutants (summary); assay type: biochemical; details: all mutants vs wild type
Method: The kinetic parameters, kcat and Km, were obtained from nonlinear regression analysis of Michaelis-Menten equation using Sigma Plot (SigmaPlot) program.
In order to appreciate the effect of each mutation on the donor substrate and the acceptor substrate, kinetic parameters for a single amino acid substitution mutant and a combinatorial mutant were measured.

[2] = test system: CC(=O)N[C@H]1[C@H]([C@H](O)[C@H](O)CO)O[C@](OP(=O)(O)OC[C@H]2O[C@@H](n3ccc(N)nc3=O)[C@H](O)[C@@H]2O)(C(=O)O)C[C@@H]1O; assay: purified protein, by the assay type; details: other: room temperature, substrate 0.1 to 30 mM
α-2,6-sialyltransferase = test system: α-2,6-sialyltransferase
From the text: The entire vector was subjected to PCR using a primer into which NNK sequence (a sequence where N is A, C, G or T, K is G or T) is introduced, the NNK sequence obtained by randomly replacing ATT and CTG sequences corresponding to amino acid positions 411 and 433 of α-2,6-sialyltransferase, thereby constructing a library. In α-2,6-sialyltransferase of the present invention, methionine is the first amino acid when counting from the first methionine sequence. In order to remove the original plasmid, the amplified gene of the sialyltransferase including the vector sequence was treated with Dpn enzyme and transformed into E. coli DH5a. Mutant genes were extracted from all of generated colonies and transformed into E. coli BW25113 (DE3). The transformed individual colonies were inoculated in the LB medium (500 μL) containing ampicillin in 96 well and shake-cultured at 30 to 37° C. for 18 to 24 hours, and then some of the culture liquid was inoculated in new LB medium (500 μL) containing 100 μg mL^−1 ampicillin and IPTG and cultured at 18 to 30° C. for 18 to 40 hours. […]
The wild type strain and mutants of sialyltransferase transformed into E. coli BW25113 (DE3) were expressed using the inducer IPTG in a culture volume of 50 mL, and purified to obtain only pure protein using Ni-NTA column, and specific activity and kinetic parameters were measured.

OC[C@H]1O[C@@H](O[C@H]2[C@H](O)[C@@H](O)C(O)O[C@@H]2CO)[C@H](O)[C@@H](O)[C@H]1O (stereo partly drawn) [Lac, lactose]
binding force with the acceptor substrate [1]: reduced

Pasteurella multocida α-2,3-sialyltransferase (α2,3PST) variant R313H (= R289H of SEQ ID NO: 1), SEQ ID NO: 3 (Pasteurella multocida; R313H)
Km ([2]; R313H): 3240 µM

Pasteurella multocida α-2,3-sialyltransferase (α2,3PST) variant R313N (= R289N of SEQ ID NO: 1), SEQ ID NO: 2 (Pasteurella multocida; R313N)
Km ([2]; R313N): 2510 µM

Pasteurella multocida (ATCC15742) α-2,3-sialyltransferase (α2,3PST), wild type, SEQ ID NO: 1 (Pasteurella multocida)
Km ([2]; wild type): 1830 µM

Pasteurella multocida α-2,3-sialyltransferase (α2,3PST) variant R313N/T265S (= R289N/T241S of SEQ ID NO: 1), SEQ ID NO: 5 (Pasteurella multocida; R313N/T265S)
Km ([2]; R313N/T265S): 3330 µM

Pasteurella multocida α-2,3-sialyltransferase (α2,3PST) variant T265S (= T241S of SEQ ID NO: 1), SEQ ID NO: 4 (Pasteurella multocida; T265S)
Km ([2]; T265S): 2230 µM

Pasteurella multocida α-2,3-sialyltransferase (α2,3PST) variant R313H/T265S (= R289H/T241S of SEQ ID NO: 1), SEQ ID NO: 6 (Pasteurella multocida; R313H/T265S)
Km ([2]; R313H/T265S): 3940 µM

B1: L433T (protein)
chain: MCNSDNTSLKETVSSNSADVVETETYQLTPIDAPSSFLSHSWEQTCGTPILNESDKQAISFDFVAPELKQDEKYCFTFKGITGDHRYITNTTLTVVAPTLEVYIDHASLPSLQQLIHIIQAKDEYPSNQRFVSWKRVTVDADNANKLNIHTYPLKGNNTSPEMVAAIDEYAQSKNRLNIEFYTNTAHVFNNLPPIIQPLYNNEKVKISHISLYDDGSSEYVSLYQWKDTPNKIETLEGEVSLLANYLAGTSPDAPKGMGNRYNWHKLYDTDYYFLREDYLDVEANLHDLRDYLGSSAKQMPWDEFAKLSDSQQTLFLDIVGFDKEQLQQQYSQSPLPNFIFTGTTTWAGGETKEYYAQQQVNVINNAINETSPYYLGKDYDLFFKGHPAGGVINDIILGSFPDMINIPAKISFEVLMMTDMLPDTVAGIASSTYFTIPADKVNFIVFTSSDTITDREEALKSPLVQVMLTLGIVKEKDVLFWA
modifications: L433T
activity increase compared to the wild type strain (α-2,6-sialyltransferase; mutant search by colorimetry): 3 times
Rel. Specific Ac (%) (α-2,6-sialyltransferase; α2,6PdST, relative to wild type, purified protein, CMP-N-acetylneuraminic acid and lactose): 296%
